Data taken from US20110300138A1 (published 2011).
Like-named read-outs stand apart in the source and are kept apart here.

Tests used:
Test in all cases: cell-based or functional assay
[1] = target: TSHR with Glu61 mutated to Ala, expressed in CHO cells (human) (UniProt P16473)
[2] = target: TSHR with Glu178 mutated to Ala expressed in CHO cells (human) (UniProt P16473)
[3] = target: TSHR with Glu107 mutated to Ala expressed in CHO cells (human) (UniProt P16473)
[4] = target: TSHR with Arg274 mutated to Ala, expressed in CHO cells (human) (UniProt P16473)
[5] = target: TSHR with Arg255 mutated to Ala (human) (UniProt P16473)
[6] = target: TSHR with Ser281 mutated to Ala, expressed in CHO cells (human) (UniProt P16473)

% inhibition of TSH stimulation; TSH (2), run at the end of assay [1]: 17%
Mutated/Wild type (%) of cyclic AMP produced, TSH 0.01 ng/mL [1]: 470%
Mutated/Wild type (%) of cyclic AMP produced, TSH 0.03 ng/mL [1]: 369%
Mutated/Wild type (%) of cyclic AMP produced, TSH 0.1 ng/mL [1]: 271%
Mutated/Wild type (%) of cyclic AMP produced, TSH 0.3 ng/mL [1]: 188%
Mutated/Wild type (%) of cyclic AMP produced, TSH 1 ng/mL [1]: 129%
Mutated/wild type (%) of cyclic AMP produced; TSH 3 ng/mL [1]: 110%
Mutated/wild type (%) of cyclic AMP produced; TSH (2) 3 ng/mL, run at the end of assay [1]: 51%
Mutated/wild type (%) of cyclic AMP produced; TSH 3 ng/mL ([1]; record 2): 67%
Mutated/Wild type (%) of cyclic AMP produced, TSH 0.01 ng/mL [2]: 467%
Mutated/Wild type (%) of cyclic AMP produced, TSH 0.03 ng/mL [2]: 240%
Mutated/Wild type (%) of cyclic AMP produced, TSH 0.1 ng/mL [2]: 115%
Mutated/Wild type (%) of cyclic AMP produced, TSH 0.3 ng/mL [2]: 71%
Mutated/Wild type (%) of cyclic AMP produced, TSH 1 ng/mL [2]: 54%
% inhibition of TSH stimulation; TSH (2) [3]: 12%
Cyclic AMP produced, mutated TSHR, TSH 0.01 ng/mL [3]: 8.2 pmol/mL
Cyclic AMP produced, mutated TSHR, TSH 0.03 ng/mL [3]: 8.92 pmol/mL
Cyclic AMP produced, mutated TSHR, TSH 0.1 ng/mL [3]: 8.24 pmol/mL
Cyclic AMP produced, mutated TSHR, TSH 0.3 ng/mL [3]: 15.7 pmol/mL
Cyclic AMP produced, mutated TSHR, TSH 1 ng/mL [3]: 30.2 pmol/mL
Cyclic AMP produced, mutated TSHR, TSH 3 ng/mL [3]: 43.9 pmol/mL
Cyclic AMP produced; TSH 3 ng/mL [3]: 83.7 pmol/mL
Cyclic AMP produced; TSH (2) [3]: 73.2 pmol/mL
Mutated/Wild type (%) of cyclic AMP produced, TSH 0.01 ng/mL [3]: 582%
Mutated/Wild type (%) of cyclic AMP produced, TSH 0.03 ng/mL [3]: 448%
Mutated/Wild type (%) of cyclic AMP produced, TSH 0.1 ng/mL [3]: 149%
Mutated/Wild type (%) of cyclic AMP produced, TSH 0.3 ng/mL [3]: 97%
Mutated/Wild type (%) of cyclic AMP produced, TSH 1 ng/mL [3]: 68%
Mutated/wild type (%) of cyclic AMP produced; TSH 3 ng/mL [3]: 82%
Mutated/wild type (%) of cyclic AMP produced; TSH (2) [3]: 78%
Mutated/wild type (%) of cyclic AMP produced; TSH 3 ng/mL ([3]; record 2): 110%
Cyclic AMP produced (pmol/mL), TSH 0.01 ng/mL, Experiment 1 [4]: 1.97 pmol/mL
Cyclic AMP produced (pmol/mL), TSH 0.01 ng/mL, Experiment 2 [4]: 1.37 pmol/mL
Cyclic AMP produced (pmol/mL), TSH 0.03 ng/mL, Experiment 1 [4]: 4.14 pmol/mL
Cyclic AMP produced (pmol/mL), TSH 0.03 ng/mL, Experiment 2 [4]: 2.94 pmol/mL
Cyclic AMP produced (pmol/mL), TSH 0.1 ng/mL, Experiment 1 [4]: 9.38 pmol/mL
Cyclic AMP produced (pmol/mL), TSH 0.1 ng/mL, Experiment 2 [4]: 8.29 pmol/mL
Cyclic AMP produced (pmol/mL), TSH 0.3 ng/mL, Experiment 1 [4]: 27.3 pmol/mL
Cyclic AMP produced (pmol/mL), TSH 0.3 ng/mL, Experiment 2 [4]: 25.5 pmol/mL
Cyclic AMP produced (pmol/mL), TSH 1 ng/mL, Experiment 1 [4]: 67.6 pmol/mL
Cyclic AMP produced (pmol/mL), TSH 1 ng/mL, Experiment 2 [4]: 58.5 pmol/mL
Cyclic AMP produced (pmol/mL), TSH 3 ng/mL, Experiment 1 [4]: 98.8 pmol/mL
Cyclic AMP produced (pmol/mL), TSH 3 ng/mL, Experiment 2 [4]: 73.2 pmol/mL
Mutated/Wild type (%), TSH 0.01 ng/mL, Experiment 1 [4]: 106%
Mutated/Wild type (%), TSH 0.01 ng/mL, Experiment 2 [4]: 55%
Mutated/Wild type (%), TSH 0.03 ng/mL, Experiment 1 [4]: 125%
Mutated/Wild type (%), TSH 0.03 ng/mL, Experiment 2 [4]: 57%
Mutated/Wild type (%), TSH 0.1 ng/mL, Experiment 1 [4]: 64%
Mutated/Wild type (%), TSH 0.1 ng/mL, Experiment 2 [4]: 61%
Mutated/Wild type (%), TSH 0.3 ng/mL, Experiment 1 [4]: 56%
Mutated/Wild type (%), TSH 0.3 ng/mL, Experiment 2 [4]: 64%
Mutated/Wild type (%), TSH 1 ng/mL, Experiment 1 [4]: 74%
Mutated/Wild type (%), TSH 1 ng/mL, Experiment 2 [4]: 79%
Mutated/Wild type (%), TSH 3 ng/mL, Experiment 1 [4]: 83%
Mutated/Wild type (%), TSH 3 ng/mL, Experiment 2 [4]: 82%
Mutated/Wild type (%) of cyclic AMP produced, TSH 0.01 ng/mL [5]: 161%
Mutated/Wild type (%) of cyclic AMP produced, TSH 0.03 ng/mL [5]: 141%
Mutated/Wild type (%) of cyclic AMP produced, TSH 0.1 ng/mL [5]: 126%
Mutated/Wild type (%) of cyclic AMP produced, TSH 0.3 ng/mL [5]: 101%
Mutated/Wild type (%) of cyclic AMP produced, TSH 1 ng/mL [5]: 90%
Mutated/wild type (%) of cyclic AMP produced; TSH 3 ng/mL [5]: 91%
% inhibition of TSH stimulation; TSH (2) (run at the end of assay, against the first TSH sample); Experiment 1 [6]: 19%
% inhibition of TSH stimulation; TSH (2) (run at the end of assay, against the first TSH sample); Experiment 2 [6]: 4%
Cyclic AMP produced (pmol/mL), TSH 0.01 ng/mL, mutated TSHR [6]: 2.84 pmol/mL
Cyclic AMP produced (pmol/mL), TSH 0.03 ng/mL, mutated TSHR [6]: 4.69 pmol/mL
Cyclic AMP produced (pmol/mL), TSH 0.1 ng/mL, mutated TSHR [6]: 11.3 pmol/mL
Cyclic AMP produced (pmol/mL), TSH 0.3 ng/mL, mutated TSHR [6]: 27.5 pmol/mL
Cyclic AMP produced (pmol/mL), TSH 1 ng/mL, mutated TSHR [6]: 51.6 pmol/mL
Cyclic AMP produced (pmol/mL), TSH 3 ng/mL, mutated TSHR [6]: 68 pmol/mL
Mutated/Wild type (%), TSH 0.01 ng/mL [6]: 140%
Mutated/Wild type (%), TSH 0.03 ng/mL [6]: 128%
Substance: TSH (ligand)
